Measurements taken from patent publication US20220146515A1 (XIAMEN INNODX BIOTECH, published 2022).

Experiments:
Assay in all cases: competition ELISA, antibody preincubated with target, AMH-coated plate
[1] = target: T1, AMH truncated antigen 36-44 (human)
T1 sequence (peptide): GLIFREDLD

[2] = target: T2, AMH truncated antigen 41-47 (human)
T2 sequence (peptide): EDLDWPP

[3] = target: T3, AMH truncated antigen 41-50 (human)
T3 sequence (peptide): EDLDWPPGSP

[4] = target: T4, AMH truncated antigen 41-51 (human)
T4 sequence (peptide): EDLDWPPGSPQ

[5] = target: T5, AMH truncated antigen 42-51 (human)
T5 sequence (peptide): DLDWPPGSPQ

[6] = target: T6, AMH truncated antigen 61-75 (human)
T6 sequence (peptide): GDSNGSSSPLRVVGA

[7] = target: T7, AMH3647-14 (Little mole rat sequence) (Little mole rat)
T7 sequence (peptide): GLIFLQDGMWSP

[8] = target: T8, AMH3647-26 (Monkey sequence) (Monkey)
T8 sequence (peptide): GLIFREDLGWPP

[9] = target: T9, AMH3647-5 (Diademed Sifaka sequence) (Diademed Sifaka)
T9 sequence (peptide): GLIFHEDWDWPP

[10] = target: T10, human AMH36-47 short peptide, mutation site 36 (human)
T10 peptide: ALIFREDLDWPP
Method: (§1) 1. AMH antigen was diluted with carbonic acid buffer (20 mmol/L CB, pH 9.6) and then coated on a polyvinyl chloride plate. In the pretreatment, the antibody purified by the protein A column and the synthesized short peptides with different human AMH36-47 amino acid mutations were subjected to proportion incubation (100 ng/ml antibody: 50 ug/ml truncated antigen) for 30 minutes, that were test samples; the control sample was (100 ng/ml antibody: PBS) and incubated for 30 minutes, and then the test samples after incubation and the control sample were added to AMH antigen plate and incubated for 30 minutes, the plate was washed for 5 times, added with GAM-HRP (1/5000 dilution) and incubated for 30 minutes, the plate was washed for 5 times, and the substrate was added and incubated for 15 minutes. The values under wavelength of 450/620 were read by microplate reader, and the detected OD values were finally calculated and analyzed. The calculation formula was: (control sample OD value−test sample OD value)/control sample OD value, and the criterion for determination was as follows: a value lower than 90% indicated the corresponding amino acid was a key amino acid, and the mutation has a great impact on the reaction of antibody.

[11] = target: T11, human AMH36-47 short peptide, mutation site 37 (human)
T11 peptide: GAIFREDLDWPP
Method: as §1

[12] = target: T12, human AMH36-47 short peptide, mutation site 38 (human)
T12 peptide: GLAFREDLDWPP
Method: as §1

[13] = target: T13, human AMH36-47 short peptide, mutation site 39 (human)
T13 peptide: GLIAREDLDWPP
Method: as §1

[14] = target: T14, human AMH36-47 short peptide, mutation site 40 (human)
T14 peptide: GLIFAEDLDWPP
Method: as §1

[15] = target: T15, human AMH36-47 short peptide, mutation site 41 (human)
T15 peptide: GLIFRADLDWPP
Method: as §1

[16] = target: T16, human AMH36-47 short peptide, mutation site 42 (human)
T16 peptide: GLIFREALDWPP
Method: as §1

[17] = target: T17, human AMH36-47 short peptide, mutation site 43 (human)
T17 peptide: GLIFREDADWPP
Method: as §1

[18] = target: T18, human AMH36-47 short peptide, mutation site 44 (human)
T18 peptide: GLIFREDLAWPP
Method: as §1

[19] = target: T19, human AMH36-47 short peptide, mutation site 45 (human)
T19 peptide: GLIFREDLDAPP
Method: as §1

[20] = target: T20, human AMH36-47 short peptide, mutation site 46 (human)
T20 peptide: GLIFREDLDWAP
Method: as §1

[21] = target: T21, human AMH36-47 short peptide, mutation site 47 (human)
T21 peptide: GLIFREDLDWPA
Method: as §1

[22] = target: T22, AMH3647-3 (Hamster sequence) (Hamster)
T22 peptide: GLIFFEDGIWPL

AMH3647-7 (Cat sequence) = target: T23, AMH3647-7 (Cat sequence) (Cat)
T23 peptide: GLIFHPDWDWQP

[23] = target: T24, AMH3647-10 (Pig sequence) (Pig)
T24 peptide: GLIFHWDWNWPP

[24] = target: T25, AMH3647-11 (Neotoma sequence) (Neotoma)
T25 peptide: GLIFLEDGIWPP

[25] = target: T26, AMH3647-12 (Gerbil sequence) (Gerbil)
T26 peptide: GLIFLEDGLWPP

[26] = target: T27, AMH3647-18 (Simum sequence) (Simum)
T27 peptide: GLIFRQDWDWPP

[27] = target: T28, AMH3647-20 (Goat sequence) (Goat)
T28 peptide: TLIFQQDWDWPL

[28] = target: T29, AMH3647-22 (Mouse sequence) (Mouse)
T29 peptide: GLIFLEDELWPP

[29] = target: T30, AMH3647-23 (Cattle sequence) (Cattle)
T30 peptide: ALIFQQAWDWPL

B1: monoclonal antibody C9F2-2 (antibody, V domains shown)
VH: EVQLVESGGGLVKPGGSLKLSCAASGFAFSTYDMSWVRQTPEKRLEWVAYISPGGGATYYPDTVKGRFTISRDNAKNTLYLQMTSLKSEDTAMYYCAGRRDYYGMDYWGQGTSVTVSS
VL: DVVMTQTPLSLPVSLGDQASISCRSSQSLVHSNGNTYLHWYLQKPGQSPKLLIYKVSNRFSGVPDRFSGSGSGTDFTLKISRVEAEDLGVYFCSQSTHVPWTFGGGTKLEIK
notes: Mouse hybridoma antibody purified from ascites; the tie is indirect; also called hybridoma CCTCC NO: C2018183
percent inhibition [1]: 32%
percent inhibition [2]: 64%
percent inhibition [3]: 65%
percent inhibition [4]: 71%
percent inhibition [5]: 60%
percent inhibition [6]: 35%
percent inhibition [7]: 29%
percent inhibition [8]: 61%
percent inhibition [9]: 32%
percent inhibition [10]: 100%
percent inhibition [11]: 97%
percent inhibition [12]: 96%
percent inhibition [13]: 9%
percent inhibition [14]: 88%
percent inhibition [15]: 7%
percent inhibition [16]: 98%
percent inhibition [17]: 94%
percent inhibition [18]: 64%
percent inhibition [19]: 100%
percent inhibition [20]: 99%
percent inhibition [21]: 99%
percent inhibition [22]: 8%
percent inhibition (AMH3647-7 (Cat sequence)): 6%
percent inhibition [23]: 8%
percent inhibition [24]: 5%
percent inhibition [25]: 5%
percent inhibition [26]: 19%
percent inhibition [27]: 3%
percent inhibition [28]: -9%
percent inhibition [29]: -8%
